The subject of the series is T1, HicB-6His (Sinorhizobium meliloti), ORF:5e3b9e2c.
T1 sequence: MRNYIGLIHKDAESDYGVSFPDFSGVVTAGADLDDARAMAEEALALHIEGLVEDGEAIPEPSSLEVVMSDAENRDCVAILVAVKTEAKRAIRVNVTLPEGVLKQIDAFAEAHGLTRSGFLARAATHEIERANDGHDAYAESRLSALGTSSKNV
The experiment in a line: EMSA. Particulars: EMSA: 10 mM Tris-HCl pH 7.5, 50 mM NaCl, 1 mM DTT, 300 ug/ml BSA, 20 ul, 30 min at 25 C; 5% native PAGE in TAE pH 7.5. (Mobility shift assays separate free from complexed probe on a gel.)

Turning to “GATCCGACGGTTCGAGACCATCCGAGAAAGCCGCCTTAGATTGGCTTGACAAATTCATTGGACGAATACACATGCGTGTGTATTGTCGTATCAGATGAAGAGCGGCGACATTATTGCAGCATTGCAGAAGGACGGATGGTACGAGGTTGCGACCAAGGGCAGCCACGTTCAATTCAAACATCCGAAAAAGCACGGCCGGGTTACCGTTCCTCACCCGAAGA (double strand) [hicAB promoter fragment]”, the binding result is given as “binds”.

The values above are taken from publication PMC6327479.
